For the assay, the target named is T1, HLA-A*02:01 (peptide-receptive MHC class I monomer after UV cleavage of the UV-sensitive ligand) (human).
T1 construct: MHC monomers loaded by UV-ligand exchange and captured on streptavidin plates
Put plainly: UV ligand-exchange ELISA; exchange yield grade (+ >=10%, ++ >=20%, +++ >=50%, ++++ >=75%). An excerpt:
Candidate peptides for T cell based therapies according to the present invention were further tested for their MHC binding capacity (affinity). The individual peptide-MHC complexes were produced by UV-ligand exchange, where a UV-sensitive peptide is cleaved upon UV-irradiation, and exchanged with the peptide of interest as analyzed. Only peptide candidates that can effectively bind and stabilize the peptide-receptive MHC molecules prevent dissociation of the MHC complexes. To determine the yield of the exchange reaction, an ELISA was performed based on the detection of the light chain (β2m) of stabilized MHC complexes. The assay was performed as generally described in Rodenko et al. (Rodenko et al., 2006).
96 well MAXISorp plates (NUNC) were coated over night with 2 ug/ml streptavidin in PBS at room temperature, washed 4× and blocked for 1 h at 37° C. in 2% BSA containing blocking buffer. Refolded HLA-A*02:01/MLA-001 monomers served as standards, covering the range of 15-500 ng/ml. Peptide-MHC monomers of the UV-exchange reaction were diluted 100 fold in blocking buffer. Samples were incubated for 1 h at 37° C., washed four times, incubated with 2 ug/ml HRP conjugated anti-β2m for 1 h at 37° C., washed again and detected with TMB solution that is stopped with […]. Absorption was measured at 450 nm. Candidate peptides that show a high exchange yield (preferably higher than 50%, most preferred higher than 75%) are generally preferred for a generation and production of antibodies or fragments thereof, and/or T cell receptors or fragments thereof, as they show sufficient avidity to the MHC molecules and prevent dissociation of the MHC complexes.

The molecule GMAAEVPKV [GMAAEVPKV (SEQ ID NO: 192)] returned a peptide exchange yield of 20 to 50%. Next, AVLGTSWQL [AVLGTSWQL (SEQ ID NO: 184)]: 50 to 75%; YLNISQVNV [YLNISQVNV (SEQ ID NO: 201)]: 50 to 75%; FLAVSLPLL [FLAVSLPLL (SEQ ID NO: 208)]: 50 to 75%. The value for LLPPPPPVA [LLPPPPPVA (SEQ ID NO: 182)] was no less than 75%; that for LLLSDSGFYL [LLLSDSGFYL (SEQ ID NO: 159)] was 50 to 75%; that for VMESILLRL [VMESILLRL (SEQ ID NO: 175)] was 50 to 75%.

On to ILDTIFHKV [ILDTIFHKV (SEQ ID NO: 203)], for which the peptide exchange yield lay in the range of 50 to 75%.

As to ALIPDLNQI [ALIPDLNQI (SEQ ID NO: 195)], the peptide exchange yield is 50 to 75%.

The molecule FLDVSRDFV [FLDVSRDFV (SEQ ID NO: 186)] showed a peptide exchange yield of 20 to 50%. The value for LLPPPSPAA [LLPPPSPAA (SEQ ID NO: 160)] was 50 to 75%; that for SLFDGAVISTV [SLFDGAVISTV (SEQ ID NO: 164)] was 50 to 75%. For the molecule SLADSMPSL [SLADSMPSL (SEQ ID NO: 193)], the peptide exchange yield was 20 to 50%.

Consider ALAAGGYDV [ALAAGGYDV (SEQ ID NO: 202)], for which the peptide exchange yield lay within 20 to 50%. Next, KLTDQPPLV [KLTDQPPLV (SEQ ID NO: 18)]: 50 to 75%.

VLEAILPLV [VLEAILPLV (SEQ ID NO: 19)] yielded a peptide exchange yield of no less than 75%.

GLEDEMYEV [GLEDEMYEV (SEQ ID NO: 188)] returned a peptide exchange yield of 20 to 50%. Next, SAVSGQWEV [SAVSGQWEV (SEQ ID NO: 206)]: 20 to 50%.

SLLSPLLSV [SLLSPLLSV (SEQ ID NO: 168)] had a peptide exchange yield of 50 to 75%. The value for VILDSVASV [VILDSVASV (SEQ ID NO: 173)] was no less than 75%. For the molecule RLADLKVSI [RLADLKVSI (SEQ ID NO: 162)], the peptide exchange yield is no less than 75%. FVDTNLYFL [FVDTNLYFL (SEQ ID NO: 179)] gave a peptide exchange yield of 50 to 75%.

In turn, NLMLELETV [NLMLELETV (SEQ ID NO: 161)] came in with a peptide exchange yield of 50 to 75%. The value for KLLEEIEFL [KLLEEIEFL (SEQ ID NO: 165)] was 50 to 75%; that for SLAPFDREPFTL [SLAPFDREPFTL (SEQ ID NO: 194)] was 20 to 50%. The value for KMLEDDLKL [KMLEDDLKL (SEQ ID NO: 156)] was 50 to 75%; that for SLSHLVPAL [SLSHLVPAL (SEQ ID NO: 189)] was 50 to 75%.

In the case of TLLDVISAL [TLLDVISAL (SEQ ID NO: 171)], the peptide exchange yield is no less than 75%. Next, FLLDTISGL [FLLDTISGL (SEQ ID NO: 209)]: 50 to 75%; YLHIYESQL [YLHIYESQL (SEQ ID NO: 176)]: 50 to 75%; SIFDAVLKGV [SIFDAVLKGV (SEQ ID NO: 163)]: no less than 75%.

The molecule YVLQGEFFL [YVLQGEFFL (SEQ ID NO: 178)] came in with a peptide exchange yield of 50 to 75%. The molecule GLIELVDQL [GLIELVDQL (SEQ ID NO: 190)] showed a peptide exchange yield of 50 to 75%.

For GLVGLLEQA [GLVGLLEQA (SEQ ID NO: 207)], the peptide exchange yield is no less than 75%. The value for KVQDVLHQV [KVQDVLHQV (SEQ ID NO: 158)] was 50 to 75%; that for TLQDSLEFI [TLQDSLEFI (SEQ ID NO: 172)] was no less than 75%.

Consider YLLTDNVVKL [YLLTDNVVKL (SEQ ID NO: 197)], for which the peptide exchange yield was 20 to 50%.

For the molecule FIAQLNNVEL [FIAQLNNVEL (SEQ ID NO: 185)], the peptide exchange yield lay within 50 to 75%. Next, VLFETVLTI [VLFETVLTI (SEQ ID NO: 183)]: 50 to 75%; FLAEQFEFL [FLAEQFEFL (SEQ ID NO: 210)]: 50 to 75%. The value for KVLEFLAKV [KVLEFLAKV (SEQ ID NO: 157)] was 50 to 75%. Next, YLYEAEEATTL [YLYEAEEATTL (SEQ ID NO: 177)]: 50 to 75%. LLFDQNDKV [LLFDQNDKV (SEQ ID NO: 181)] yielded a peptide exchange yield of 50 to 75%. With TLIAAILYL [TLIAAILYL (SEQ ID NO: 16)], the peptide exchange yield was in the range of 20 to 50%. The value for SLFSITKSV [SLFSITKSV (SEQ ID NO: 167)] was 50 to 75%; that for VLVEITDVDFAA [VLVEITDVDFAA (SEQ ID NO: 174)] was no less than 75%; that for VIIPLLSSV [VIIPLLSSV (SEQ ID NO: 17)] was 50 to 75%. The value for SLNSTTWKV [SLNSTTWKV (SEQ ID NO: 199)] was 50 to 75%; that for FLNSFVFKM [FLNSFVFKM (SEQ ID NO: 187)] was 20 to 50%. With TLFYESPHL [TLFYESPHL (SEQ ID NO: 205)], the peptide exchange yield was 50 to 75%. Next, ALFKEAYSL [ALFKEAYSL (SEQ ID NO: 21)]: 50 to 75%. The value for SSLEENLLHQV [SSLEENLLHQV (SEQ ID NO: 169)] was 50 to 75%. The value for KLMTSLVKV [KLMTSLVKV (SEQ ID NO: 155)] was 50 to 75%; that for GLSDISAQV [GLSDISAQV (SEQ ID NO: 191)] was 50 to 75%.

Take FIDDLFAFV [FIDDLFAFV (SEQ ID NO: 211)]: the peptide exchange yield lay in the range of 50 to 75%.

Consider YLLDFEDRL [YLLDFEDRL (SEQ ID NO: 200)], for which the peptide exchange yield is no less than 75%.

GILQLVESV [GILQLVESV (SEQ ID NO: 180)] gave a peptide exchange yield of 50 to 75%. Next, LLSEETPSA [LLSEETPSA (SEQ ID NO: 2)]: 50 to 75%; RLCDIVVNV [RLCDIVVNV (SEQ ID NO: 204)]: 20 to 50%. Molecule GLLSAVSSV [GLLSAVSSV (SEQ ID NO: 198)] yielded a peptide exchange yield of 50 to 75%.

Source of the values: patent US20170296640A1 (IMMATICS BIOTECHNOLOGIES, published 2017).
